One data set has as its system HIF-1α. In words: Detecting HIF-1α activation in cytosolic extracts of HeLa S3 cells, anti-ARNT capture, real-time PCR. Type of data set: cell-based, human. The protocol:
HIF-1 DNA binding activity was induced as follows. Actively dividing HeLa S3 cells were treated with 125 μM CoCl2 for 4 hr at 37° C. Cells were washed 2× in tissue culture dishes with ice cold phosphate-buffered saline (PBS) before harvesting. Cells were pelleted at 420×g for 5 min, washed twice with PBS and resuspended in 5 packed cell volumes of buffer A (10 mM Tris-HCl (pH 7.6), 1.5 mM MgCl2, 10 mM KCl, 1 mM DTT) supplemented with Sigma protease inhibitor cocktail (P 8340, Sigma Chemical Co., St. Louis, Mo.). After incubation on ice for 15 min, cells were pelleted at 450×g for 5 min, resuspended in 2 packed cell volumes of buffer C (0.42 M KCl, 20 mM Tris-HCl (pH 7.6), 20% glycerol, 1.5 MM MgCl2, 1 mM DTT and 0.2 mM EDTA) supplemented with Sigma protease inhibitor cocktail. The cells were disrupted using a Branson Sonifier 450 (Branson Ultrasonics Corp., Danbury, Conn.) fitted with a microtip for two 20-second pulses at a 45% duty cycle. After centrifugation at 20,000×g for 5 min, the supernatant was designated as cytosolic extract. The cytosolic extracts from treated and untreated cells were aliquoted and stored at −80° C. […]
Primers PRIHa and PRIHb (0.9 μM final) were added to 2×PCR SYBR® Green Master Mix (Applied Biosystems Cat No. 4309155) and the Master Mix made 1× with Water. […] 50 μl of master mix from each well was transferred to a PCR plate, capped and analyzed by real-time PCR using an Opticon thermocycler (MJ Research, Inc., Watham, Mass.). […]
In brief cytosolic extracts prepared from untreated or CoCl2 treated cells were diluted and exposed to nucleic acid-tracer. […] DNA amplification was monitored using real-time PCR. The process takes only a few hours to complete and provides qualitative or quantitative results.
The PCR data is typically plotted as a primary growth curve. For quantitative and comparative purposes, a threshold cycle (Ct) is defined for each sample. […] The Ct value is typically calculated near the first cycle where the PCR products are amplified at the greatest rate (no reagent is limiting) and where the amplified product is detectable above background. […]

Data set [1] addresses T1, Glucocorticoid receptor (UniProt P04150 P04150:1-777). In words: competition; 100-fold excess reduces tracer signal 68 to 44. To be noted: tags: baculovirus expressed, Panvera P2187 (so in the source).
In data set [2] the target is T2, Estrogen receptor alpha (Homo sapiens, UniProt P03372 P03372:1-595). In words: anti-ER capture PCR; DMSO 137, estradiol […]; 25 mM Tris pH 8.0, 50 mM KCl, 4 C; ligand independent. To be noted: tags: baculovirus expressed, Panvera P2187; chain copies: 2.
T2 sequence (P03372 whole entry, one chain of several): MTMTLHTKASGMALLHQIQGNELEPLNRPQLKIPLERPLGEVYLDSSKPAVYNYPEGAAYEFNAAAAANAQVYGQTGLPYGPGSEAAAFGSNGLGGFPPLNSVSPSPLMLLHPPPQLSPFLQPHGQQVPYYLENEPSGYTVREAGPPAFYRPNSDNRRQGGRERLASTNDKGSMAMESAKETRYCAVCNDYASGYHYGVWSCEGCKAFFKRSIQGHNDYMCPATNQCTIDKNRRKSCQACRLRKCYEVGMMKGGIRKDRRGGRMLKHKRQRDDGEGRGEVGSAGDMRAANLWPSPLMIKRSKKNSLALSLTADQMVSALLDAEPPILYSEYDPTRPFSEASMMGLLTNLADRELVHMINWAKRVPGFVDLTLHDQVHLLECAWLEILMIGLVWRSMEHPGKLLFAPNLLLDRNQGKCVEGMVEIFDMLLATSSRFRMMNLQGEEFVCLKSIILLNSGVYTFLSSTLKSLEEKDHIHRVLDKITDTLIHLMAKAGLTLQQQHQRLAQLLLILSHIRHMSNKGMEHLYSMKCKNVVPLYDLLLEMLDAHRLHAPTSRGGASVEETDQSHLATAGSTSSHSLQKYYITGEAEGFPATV
The target in data set [3] is T2, Estrogen receptor alpha. In words: competition; 100-fold excess reduces tracer signal 104 to 81. To be noted: tags: baculovirus expressed, Panvera P2187; chain copies: 2.
The target of data set [4] is T1, Glucocorticoid receptor. In words: anti-GR capture PCR; DMSO 82, dexamethasone 68; 25 mM Tris pH 7.9, 60 mM KCl, 4 C; ligand independent. The conditions noted are these: tags: baculovirus expressed, Panvera P2187 (so in the source).

T1 sequence (P04150 whole entry, one chain of several): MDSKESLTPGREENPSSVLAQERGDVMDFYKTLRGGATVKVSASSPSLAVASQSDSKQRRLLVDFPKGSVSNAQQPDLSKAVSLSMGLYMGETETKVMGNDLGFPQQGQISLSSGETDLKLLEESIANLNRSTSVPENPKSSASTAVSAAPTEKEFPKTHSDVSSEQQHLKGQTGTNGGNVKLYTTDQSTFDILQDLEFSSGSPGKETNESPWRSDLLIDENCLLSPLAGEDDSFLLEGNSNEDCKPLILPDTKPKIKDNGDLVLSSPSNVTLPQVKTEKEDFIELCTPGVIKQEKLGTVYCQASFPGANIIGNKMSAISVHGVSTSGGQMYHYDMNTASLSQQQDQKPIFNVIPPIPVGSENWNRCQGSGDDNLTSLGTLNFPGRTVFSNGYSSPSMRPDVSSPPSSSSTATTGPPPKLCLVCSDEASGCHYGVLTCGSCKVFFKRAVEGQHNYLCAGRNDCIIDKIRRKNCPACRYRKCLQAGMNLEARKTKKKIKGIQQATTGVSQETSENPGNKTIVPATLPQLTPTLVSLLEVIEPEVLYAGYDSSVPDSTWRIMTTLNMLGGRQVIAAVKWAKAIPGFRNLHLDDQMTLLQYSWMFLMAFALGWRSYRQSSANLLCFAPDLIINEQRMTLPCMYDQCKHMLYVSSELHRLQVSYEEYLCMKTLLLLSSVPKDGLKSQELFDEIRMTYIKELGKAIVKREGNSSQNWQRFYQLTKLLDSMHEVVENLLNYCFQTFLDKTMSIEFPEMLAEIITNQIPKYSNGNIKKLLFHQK

For `[Cl][Co][Cl]` [CoCl2, cobalt chloride], the “Ct Value” with HIF-1α (cytosol of treated cells (CoCl2), plus 100x DNA competitor) was found to be 22.52; in the data set on HIF-1α (cytosol of treated cells (CoCl2, 4 hr), no DNA competitor, untreated 23.08), 20.47. Also, the “difference of Ct values, treated versus untreated cytosolic preparations” value in the data set with HIF-1α (no DNA competitor) is “more than 2.60 units”.

B1: competitor GRE (TGR1/TGR2) (dsDNA)
DNA 1: GCTGTACAGGATGTTCTGCC
DNA 2: GGCAGAACATCCTGTACAGC
As for B1, the binding result with Glucocorticoid receptor [1] was “binds”.

B2: ERE tracer (VER1/VER2) (dsDNA)
DNA 1: CAACTTCATCCACGTTCACCGTCCAAAGTCAGGTCACAGTGACCTGATCAAAGTTGTACCTGTCCTTGGCTCTTC
DNA 2: GAAGAGCCAAGGACAGGTACAACTTTGATCAGGTCACTGTGACCTGACTTTGGACGGTGAACGTGGATGAAGTTG
B2: the binding result in the data set with Estrogen receptor alpha [2] is “binds”.

B3: competitor ERE (DX1/DX3) (dsDNA)
DNA 1: CTAGAAAGTCAGGTCACAGTGACCTG
DNA 2: CAGGTCACTGTGACCTGACTTTCTAG
For the molecule B3, the binding result in the data set with Estrogen receptor alpha [3] is listed as “binds”.

B4: GRE tracer (BGGR1/BGGR2) (dsDNA)
DNA 1: CAACTTCATCCACGTTCACCGCTGTACAGGATGTTCTGCCGTACCTGTCCTTGGCTCTTC
DNA 2: GAAGAGCCAAGGACAGGTACGGCAGAACATCCTGTACAGCGGTGAACGTGGATGAAGTTG
As to B4, in the data set with Glucocorticoid receptor [4], the binding result was “binds”.

The values above are taken from US20040259096A1, “Receptor capture assay” (priority 2001, published 2004).
